Laboratory results from patent US20130224246A1.

Legend:
[1] = molecular target: MBP-LEL113-201, maltose-binding protein linked to the CD81 large extracellular loop between residues 113 to 201 (UniProt P60033); assay: EIA: E2661-his on coated MBP-LEL113-201, detected with anti-His
[2] = molecular target: MBP-LEL113-201, maltose-binding protein linked to the CD81 large extracellular loop between residues 113 to 201 (UniProt P60033); assay: EIA: HCVpp lysate on coated MBP-LEL113-201, detected with H53

Chain of MBP-LEL113-201, maltose-binding protein linked to the CD81 large extracellular loop between residues 113 to 201 (P60033 113-201 limits assumed): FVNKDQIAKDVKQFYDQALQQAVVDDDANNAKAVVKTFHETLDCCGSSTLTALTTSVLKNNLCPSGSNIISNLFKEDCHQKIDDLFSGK

How did the % of WT CD81-LEL binding activity retained [1] turn out when “E2661-his C452A/C459A (from UniProt P27958 384-661)” was run?
Its % of WT CD81-LEL binding activity retained is 40%.

What about the decrease in CD81 binding activity [1] of the same substance?
Its decrease in CD81 binding activity is 60%.

“HCVpp E2 C452A (from UniProt P27958 384-746)” was tested. Which CD81-binding function (reduced) [2] did it give?
Its CD81-binding function (reduced) is 80%.

How did the % of WT LEL-binding activity retained [2] turn out when “HCVpp E2 C486A (from UniProt P27958 384-746)” was run?
Its % of WT LEL-binding activity retained is 80%.

How did the reduction in CD81 binding ability [2] turn out when “HCVpp E2 C569A (from UniProt P27958 384-746)” was run?
The reduction in CD81 binding ability was 70%.

With “E2661-his M+C459A (from UniProt P27958 384-661)” as the substance, how does the fold reduction in LEL binding [1] read?
The fold reduction in LEL binding was 16 fold.

How did the CD81-binding function (reduced) [2] turn out when “HCVpp E2 C459A (from UniProt P27958 384-746)” was run?
Its CD81-binding function (reduced) is 40%.
